Measured values published in US20210032299A1.
Starred links: 1 amine or outer side, 2 acyl side, 3 side chain; linkers in the order of their positions; H or OH if unused. Non-standard residues stand in square brackets, D forms with d. Groups on a side chain read outwards from the residue. No end group written: not given here. *: point of attachment. C20 diacid = O=C(O)CCCCCCCCCCCCCCCCCCC(=O)*; C18 diacid = O=C(O)CCCCCCCCCCCCCCCCC(=O)*; αMePhe(2-F) = C[C@](N)(Cc1ccccc1F)C(=O)O; γGlu = O=C(O)[C@H](CCC(=O)[*:2])N[*:1]; 4Pal = N[C@@H](Cc1ccncc1)C(=O)O; αMeL = CC(C)C[C@](C)(N)C(=O)O; AEEA = NCCOCCOCC(=O)O; Aib = CC(C)(N)C(=O)O

B1: Example 100 (peptide)
peptide: Y[Aib]EGTFISDYSI[αMeL]LDKIHQ[Aib]EFVE[4Pal]K([AEEA-AEEA-γGlu-C20 diacid])LEGGPSSGAPPPS-NH2
modifications: N-terminus assumed
SMILES: CC[C@H](C)[C@H](NC(=O)[C@H](CCCCN)NC(=O)[C@H](CC(=O)O)NC(=O)[C@H](CC(C)C)NC(=O)[C@](C)(CC(C)C)NC(=O)[C@@H](NC(=O)[C@H](CO)NC(=O)[C@H](Cc1ccc(O)cc1)NC(=O)[C@H](CC(=O)O)NC(=O)[C@H](CO)NC(=O)[C@@H](NC(=O)[C@H](Cc1ccccc1)NC(=O)[C@@H](NC(=O)CNC(=O)[C@H](CCC(=O)O)NC(=O)C(C)(C)NC(=O)[C@@H](N)Cc1ccc(O)cc1)[C@@H](C)O)[C@@H](C)CC)[C@@H](C)CC)C(=O)N[C@@H](Cc1c[nH]cn1)C(=O)N[C@@H](CCC(N)=O)C(=O)NC(C)(C)C(=O)N[C@@H](CCC(=O)O)C(=O)N[C@@H](Cc1ccccc1)C(=O)N[C@H](C(=O)N[C@@H](CCC(=O)O)C(=O)N[C@@H](Cc1ccncc1)C(=O)N[C@@H](CCCCNC(=O)COCCOCCNC(=O)COCCOCCNC(=O)CC[C@H](NC(=O)CCCCCCCCCCCCCCCCCCC(=O)O)C(=O)O)C(=O)N[C@@H](CC(C)C)C(=O)N[C@@H](CCC(=O)O)C(=O)NCC(=O)NCC(=O)N1CCC[C@H]1C(=O)N[C@@H](CO)C(=O)N[C@@H](CO)C(=O)NCC(=O)N[C@@H](C)C(=O)N1CCC[C@H]1C(=O)N1CCC[C@H]1C(=O)N1CCC[C@H]1C(=O)N[C@@H](CO)C(N)=O)C(C)C
B2: Example 94 (peptide)
peptide: Y[Aib]EGT[αMePhe(2-F)]ISDYSIALDKIHQ[Aib]EFVNYK([AEEA-AEEA-γGlu-C18 diacid])LAGGPSSGAPPPS-NH2
modifications: N-terminus assumed
SMILES: CC[C@H](C)[C@H](NC(=O)[C@H](CO)NC(=O)[C@H](Cc1ccc(O)cc1)NC(=O)[C@H](CC(=O)O)NC(=O)[C@H](CO)NC(=O)[C@@H](NC(=O)[C@](C)(Cc1ccccc1F)NC(=O)[C@@H](NC(=O)CNC(=O)[C@H](CCC(=O)O)NC(=O)C(C)(C)NC(=O)[C@@H](N)Cc1ccc(O)cc1)[C@@H](C)O)[C@@H](C)CC)C(=O)N[C@@H](C)C(=O)N[C@@H](CC(C)C)C(=O)N[C@@H](CC(=O)O)C(=O)N[C@@H](CCCCN)C(=O)N[C@H](C(=O)N[C@@H](Cc1c[nH]cn1)C(=O)N[C@@H](CCC(N)=O)C(=O)NC(C)(C)C(=O)N[C@@H](CCC(=O)O)C(=O)N[C@@H](Cc1ccccc1)C(=O)N[C@H](C(=O)N[C@@H](CC(N)=O)C(=O)N[C@@H](Cc1ccc(O)cc1)C(=O)N[C@@H](CCCCNC(=O)COCCOCCNC(=O)COCCOCCNC(=O)CC[C@H](NC(=O)CCCCCCCCCCCCCCCCC(=O)O)C(=O)O)C(=O)N[C@@H](CC(C)C)C(=O)N[C@@H](C)C(=O)NCC(=O)NCC(=O)N1CCC[C@H]1C(=O)N[C@@H](CO)C(=O)N[C@@H](CO)C(=O)NCC(=O)N[C@@H](C)C(=O)N1CCC[C@H]1C(=O)N1CCC[C@H]1C(=O)N1CCC[C@H]1C(=O)N[C@@H](CO)C(N)=O)C(C)C)[C@@H](C)CC
B3: Example 5 (peptide)
peptide: Y[Aib]EGTFISDYSI[αMeL]LDKIHQ[Aib]DFVEYK([AEEA-AEEA-γGlu-C20 diacid])LEGGPSSGAPPPS-NH2
modifications: N-terminus assumed
SMILES: CC[C@H](C)[C@H](NC(=O)[C@H](CCCCN)NC(=O)[C@H](CC(=O)O)NC(=O)[C@H](CC(C)C)NC(=O)[C@](C)(CC(C)C)NC(=O)[C@@H](NC(=O)[C@H](CO)NC(=O)[C@H](Cc1ccc(O)cc1)NC(=O)[C@H](CC(=O)O)NC(=O)[C@H](CO)NC(=O)[C@@H](NC(=O)[C@H](Cc1ccccc1)NC(=O)[C@@H](NC(=O)CNC(=O)[C@H](CCC(=O)O)NC(=O)C(C)(C)NC(=O)[C@@H](N)Cc1ccc(O)cc1)[C@@H](C)O)[C@@H](C)CC)[C@@H](C)CC)C(=O)N[C@@H](Cc1c[nH]cn1)C(=O)N[C@@H](CCC(N)=O)C(=O)NC(C)(C)C(=O)N[C@@H](CC(=O)O)C(=O)N[C@@H](Cc1ccccc1)C(=O)N[C@H](C(=O)N[C@@H](CCC(=O)O)C(=O)N[C@@H](Cc1ccc(O)cc1)C(=O)N[C@@H](CCCCNC(=O)COCCOCCNC(=O)COCCOCCNC(=O)CC[C@H](NC(=O)CCCCCCCCCCCCCCCCCCC(=O)O)C(=O)O)C(=O)N[C@@H](CC(C)C)C(=O)N[C@@H](CCC(=O)O)C(=O)NCC(=O)NCC(=O)N1CCC[C@H]1C(=O)N[C@@H](CO)C(=O)N[C@@H](CO)C(=O)NCC(=O)N[C@@H](C)C(=O)N1CCC[C@H]1C(=O)N1CCC[C@H]1C(=O)N1CCC[C@H]1C(=O)N[C@@H](CO)C(N)=O)C(C)C
B4: Example 99 (peptide)
peptide: Y[Aib]EGT[αMePhe(2-F)]ISDYSIALDKIHQ[Aib]DFVEYK([AEEA-AEEA-γGlu-C20 diacid])LEGGPSSGAPPPS-NH2
modifications: N-terminus assumed
SMILES: CC[C@H](C)[C@H](NC(=O)[C@H](CO)NC(=O)[C@H](Cc1ccc(O)cc1)NC(=O)[C@H](CC(=O)O)NC(=O)[C@H](CO)NC(=O)[C@@H](NC(=O)[C@](C)(Cc1ccccc1F)NC(=O)[C@@H](NC(=O)CNC(=O)[C@H](CCC(=O)O)NC(=O)C(C)(C)NC(=O)[C@@H](N)Cc1ccc(O)cc1)[C@@H](C)O)[C@@H](C)CC)C(=O)N[C@@H](C)C(=O)N[C@@H](CC(C)C)C(=O)N[C@@H](CC(=O)O)C(=O)N[C@@H](CCCCN)C(=O)N[C@H](C(=O)N[C@@H](Cc1c[nH]cn1)C(=O)N[C@@H](CCC(N)=O)C(=O)NC(C)(C)C(=O)N[C@@H](CC(=O)O)C(=O)N[C@@H](Cc1ccccc1)C(=O)N[C@H](C(=O)N[C@@H](CCC(=O)O)C(=O)N[C@@H](Cc1ccc(O)cc1)C(=O)N[C@@H](CCCCNC(=O)COCCOCCNC(=O)COCCOCCNC(=O)CC[C@H](NC(=O)CCCCCCCCCCCCCCCCCCC(=O)O)C(=O)O)C(=O)N[C@@H](CC(C)C)C(=O)N[C@@H](CCC(=O)O)C(=O)NCC(=O)NCC(=O)N1CCC[C@H]1C(=O)N[C@@H](CO)C(=O)N[C@@H](CO)C(=O)NCC(=O)N[C@@H](C)C(=O)N1CCC[C@H]1C(=O)N1CCC[C@H]1C(=O)N1CCC[C@H]1C(=O)N[C@@H](CO)C(N)=O)C(C)C)[C@@H](C)CC

Target: T1, human glucose-dependent insulinotropic polypeptide (GIP) receptor (human), P48546
T1 chain: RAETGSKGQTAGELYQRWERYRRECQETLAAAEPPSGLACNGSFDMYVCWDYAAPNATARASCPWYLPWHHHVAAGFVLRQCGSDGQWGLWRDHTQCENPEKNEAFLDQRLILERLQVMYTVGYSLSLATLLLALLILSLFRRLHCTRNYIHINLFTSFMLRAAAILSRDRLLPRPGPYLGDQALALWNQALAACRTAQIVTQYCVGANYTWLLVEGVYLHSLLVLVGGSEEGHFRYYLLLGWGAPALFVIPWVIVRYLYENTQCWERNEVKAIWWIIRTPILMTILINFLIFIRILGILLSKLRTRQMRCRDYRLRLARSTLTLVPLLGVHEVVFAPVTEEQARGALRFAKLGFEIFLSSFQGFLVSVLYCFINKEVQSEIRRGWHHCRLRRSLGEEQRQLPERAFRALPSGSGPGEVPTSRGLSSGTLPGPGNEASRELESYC
Assay: SPA, displacement of [125I]-GIP from hGIPR membranes, 0.1% bacitracin

Binder | Ki [nM]
B1 | 0.0674
B2 | 0.031
B3 | 0.0771
B4 | 0.0341

Each binder was assayed against human glucagon receptor (human), P47871 (assay: SPA, displacement of [125I]-Gcg from hGcgR membranes, 0.1% bacitracin).
Chain of human glucagon receptor (human), P47871 (P47871 26-477): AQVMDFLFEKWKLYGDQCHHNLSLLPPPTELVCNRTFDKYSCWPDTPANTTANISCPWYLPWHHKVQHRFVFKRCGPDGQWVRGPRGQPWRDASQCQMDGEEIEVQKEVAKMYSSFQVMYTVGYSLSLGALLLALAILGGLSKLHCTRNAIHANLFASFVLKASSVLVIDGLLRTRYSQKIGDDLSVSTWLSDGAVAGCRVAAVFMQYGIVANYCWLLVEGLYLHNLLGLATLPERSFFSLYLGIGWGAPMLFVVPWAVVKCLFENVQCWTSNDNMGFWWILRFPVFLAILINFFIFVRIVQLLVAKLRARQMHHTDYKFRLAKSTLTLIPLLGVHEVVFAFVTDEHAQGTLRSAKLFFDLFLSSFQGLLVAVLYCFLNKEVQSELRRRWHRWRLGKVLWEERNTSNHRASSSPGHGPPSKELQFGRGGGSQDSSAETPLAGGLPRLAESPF

Binder | Ki [nM]
B1 | 572
B2 | 114
B3 | 619
B4 | 174
